Source: US20250049939A1, “NOVEL FLT3 ANTIBODIES AND ANTIBODY-DRUG-CONJUGATES BASED THEREON, THERAPEUTIC METHODS AND USES THEREOF IN COMBINATION WITH TYROSINE KINASE INHIBITORS” (TUBULIS GmbH, priority 2021, published 2025)

How the values were obtained:
[1] = system: ITD mutant human FLT3 (hFLT3ITD); assay: Cell surface binding to Ba/F3 hFLT3ITD, flow cytometry
Text: (§1) FIG. 1: Evaluation of epitope specificity and internalization capability of anti-FLT3 monoclonal antibodies. (A) Affinity of seven anti-FLT3 monoclonal antibody (mab) clones to recombinant human FLT3 measured in enzyme-linked immunosorbent assay (ELISA) normalized to the binding of the antibodies to BSA control. […] (B) Schematic FLT3 receptor. Black arrows indicate common mutations and blue arrows indicate the three identified epitopes of seven anti-FLT3 antibodies analyzed in linear epitope mapping by PEPperPRINT. Figure was created with BioRender.com. (C) Binding and temperature induced internalization of anti-FLT3 antibodies in Ba/F3 cells expressing human wildtype FLT3. […] Remaining surface-bound antibody was detected in flow cytometry. […] MFI=mean fluorescence intensity. […] (D) Cell surface binding of 20D9 mab or control human IgG1 antibody to Ba/F3 cells stably expressing pMIY (Ba/F3-pMIY) empty vector (ev), human wildtype (hFLT3 wt) or ITD mutant human FLT3 (hFLT3ITD) was measured in flow cytometry. […] (E) Temperature induced internalization of 4B12 mab in MOLM-13 (FLT3 positive) cells after 30 min incubation at 37° C. compared to 4° C. and HL-60 (FLT3 negative) after 37° C. incubation assessed in immunofluorescence staining. […] (G) Cell surface binding of 20D9 mab or control hIgG1 antibody to Ba/F3-PMIY ev, hFLT3 wt or epitope mutant FLT3 (hFLT3/S50P/P54R) measured in flow cytometry. […]

hFLT3/S50P/P54R = biological target: T1, hFLT3/S50P/P54R (Homo sapiens, UniProt P36888, P54R/S50P); assay: Cell surface binding to Ba/F3 epitope mutant FLT3, flow cytometry
T1 construct: expressed in transfected cells; host or cells: Ba/F3 cells, retrovirally transduced with MSCV-IRES-YFP (pMIY) vector
T1 sequence (P36888 27-993 S50P/P54R): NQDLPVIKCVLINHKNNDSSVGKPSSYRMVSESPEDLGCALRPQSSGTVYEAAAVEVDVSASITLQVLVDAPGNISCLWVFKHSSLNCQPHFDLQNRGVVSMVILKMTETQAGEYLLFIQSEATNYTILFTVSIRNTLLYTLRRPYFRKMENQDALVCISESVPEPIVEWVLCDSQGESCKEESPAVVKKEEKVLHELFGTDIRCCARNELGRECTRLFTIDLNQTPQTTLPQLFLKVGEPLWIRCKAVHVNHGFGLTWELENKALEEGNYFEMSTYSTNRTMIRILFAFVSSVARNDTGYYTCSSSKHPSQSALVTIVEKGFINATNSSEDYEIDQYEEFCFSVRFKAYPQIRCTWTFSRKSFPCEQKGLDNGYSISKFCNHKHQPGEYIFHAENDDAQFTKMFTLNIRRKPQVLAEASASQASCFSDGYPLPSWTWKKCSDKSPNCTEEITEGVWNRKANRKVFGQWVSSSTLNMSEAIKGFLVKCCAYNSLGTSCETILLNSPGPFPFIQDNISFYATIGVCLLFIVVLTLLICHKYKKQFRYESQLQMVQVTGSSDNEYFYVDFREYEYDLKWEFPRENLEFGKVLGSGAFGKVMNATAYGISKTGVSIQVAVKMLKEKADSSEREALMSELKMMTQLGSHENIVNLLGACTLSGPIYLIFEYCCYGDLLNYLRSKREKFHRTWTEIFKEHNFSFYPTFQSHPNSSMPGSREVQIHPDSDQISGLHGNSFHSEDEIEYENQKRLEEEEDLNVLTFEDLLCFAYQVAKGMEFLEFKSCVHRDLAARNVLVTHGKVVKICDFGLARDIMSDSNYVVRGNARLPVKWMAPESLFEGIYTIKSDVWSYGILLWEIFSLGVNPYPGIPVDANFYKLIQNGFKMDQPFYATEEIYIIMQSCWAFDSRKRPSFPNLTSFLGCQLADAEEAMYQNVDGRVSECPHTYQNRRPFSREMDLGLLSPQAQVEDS
Text: as §1

[2] = system: FLT3 mutants FLT3/NPOS, FLT3/D835Y, FLT3/D835V, FLT3/NPOS D835Y, FLT3/NPOS N676K, FLT3/NPOS F6911, FLT3/NPOS F691L; assay: Cell surface binding to Ba/F3 FLT3ITD and TKD mutants; design: species or system human
Experimental: For FLT3 expression analysis, cells were stained on ice with primary mouse anti-FLT3-AF647 antibodies for 30 min. For antibody binding studies, cells were stained on ice with chimeric (20D9) or humanized anti-FLT3 antibodies (in house) or IgG1 control with or without Leu234Ala/Leu235Ala (LALA)-mutation in the Fc region and secondary antibody goat F(ab′)2 Anti-Human IgG-AF647 (2042-31) purchased from Southern Biotech for 30 min, respectively. Binding and expression were subsequently measured at the flow cytometer (BD FACSCanto II) and the results were evaluated with FlowJo version 10.8.1.

[3] = system: FLT3 positive human cell lines; assay: Cytotoxicity in leukemia and lymphoma cell lines, 96 h resazurin; assay type: cell-based; details: FLT3 positive and negative cell lines
Text: (A) Correlation of MFI of CD64 cell surface expression and MFI of FLT3 cell surface expression of myeloid human cell lines measure in flow cytometry. Expression data presented in Supplementary FIGS. 4A and B. Black line indicates simple linear regression with error interval. r=Pearson correlation coefficient; r^2=Coefficient of determination; p=p value from two tailed test with confidence interval of 95%. MFI=mean fluorescence intensity. (B,C,E,F) Assessment of cytotoxicity of ADCs in different human cell lines. Viability was determined after 96h treatment with different concentrations of ADCs by resazurin fluorescence and normalized to untreated control. Dashed line indicates 100 ng/ml drug concentration. Mean±s.d. of n=3 biological replicates. […] Black line indicates simple linear regression with error interval. (E) Treatment of FLT3 positive human cell lines with IgG1-ADC.

B1: 20D9: chimeric (rat variable regions, human IgG1) anti-FLT3 monoclonal antibody; VH SEQ ID NO: 5, VL SEQ ID NO: 6 (antibody, V domains shown)
VH: DVMLVESGGGLVQPGRSLKLSCVASGFTFNNYWMTWIRQAPGKGLEWIASITKTGGGTYYPDSVKGRFTISRDNAKSTLYLQMNSLRSEDTATYYCTTLQQLGVMDAWGQGASVTVSSA
VL: DVQMTQSPSVLSASVGDRITLNCKASQNINKELNWYQQKLGEAPKLLIYNTNNLQTGIPSRFSGSGSGTDYTLTISSLQPEDVATYFCFQHKSWPLTFGSGTKLEIKR
modifications: Clone 20D9, heavy chain variable region without a signal seqeunce; Clone 20D9, light chain variable region without a signal seqeunce
[1]
  Binding to Ba/F3 cell lines expressing FLT3-ITD: specific binding
hFLT3/S50P/P54R
  Binding to human FLT3 with epitope region mutated to murine variant (S50P/P54R): not able to bind
[2]
  Binding to FLT3 with common mutations: also binds to FLT3 with common mutations
[3]
  Effect of unconjugated antibody on cell proliferation: did not impair cell proliferation
